One protein from paper doi:10.1101/2021.04.26.440876, “Fluoxetine targets an allosteric site in the enterovirus 2C AAA+ ATPase and stabilizes the hexameric complex” (bioRxiv, 2021) can be followed below.

The series concerns the molecule itself. The series is described as follows: SEC; size exclusion chromatography gel filtration profile of the MBP-tagged full-length preparation (Figure S9). In general terms: In gel filtration, larger molecules generally elute earlier.

B1: MBP-tagged full-length CV-B3 2C (natural protein)
chain: NNSWLKKFTEMTNACKGMEWIAVKIQKFIEWLKVKILPEVREKHEFLNRLKQLPLLESQIATIEQSAPSQSDQEQLFSNVQYFAHYCRKYAPLYAAEAKRVFSLEKKMSNYIQFKSKCRIEPVCLLLHGSPGAGKSVATNLIGRSLAEKLNSSVYSLPPDPDHFDGYKQQAVVIMDDLCQNPDGKDVSLFCQMVSSVDFVPPMAALEEKGILFTSPFVLASTNAGSINAPTVSDSRALARRFHFDMNIEVISMYSQNGKINMPMSVKTCDDECCPVNFKKCCPLVCGKAIQFIDRRTQVRYSLDMLVTEMFREYNHRHSVGTTLEALFQ
notes: coxsackievirus B3 non-structural protein 2C (cut product of the polyprotein), full length (329 residues by the printed limits of the other constructs); source: purified
Take B1: the binding result is given as “binds”.
